Data on 7 molecules can be found in patent publication US20260146099A1 (SELVAX, published 2026).

Read-outs that look alike come from different tables or passages of the source.

Experiment [1] concerns the target Recombinant canine CD40 extracellular domain with human IgG1 Fc domain tag (canine; human) (UniProt Q7YRL5). Briefly: SPR (Biacore T200), single-cycle kinetics, canine CD40-Fc immobilised, antibody 2-32 nM as analyte, bivalent analyte model, first site, average n=5. (In general: Surface plasmon resonance follows binding to a sensor surface in real time, without labels.)

Experiment [2] concerns the target T1, Recombinant canine CD40/TNFRSF5 protein (his tag) (canine, UniProt Q7YRL5 21-194).
T1 construct: Sino Biological 70105-D08H, expressed in a human cell line from Met1-Ala194; signal peptide Met1-Pro20 predicted cleaved; also called antigen; StP1a (canine CD40)
T1 sequence: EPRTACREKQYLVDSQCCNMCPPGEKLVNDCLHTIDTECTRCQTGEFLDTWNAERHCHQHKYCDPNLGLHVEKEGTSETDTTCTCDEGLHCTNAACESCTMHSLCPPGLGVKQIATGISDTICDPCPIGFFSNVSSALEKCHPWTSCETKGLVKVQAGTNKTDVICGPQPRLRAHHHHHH
Briefly: ELISA, absorbance on StP1a over absorbance on Irrelevant His Tag (RgN3a).

The target of experiment [3] is T1, Recombinant canine CD40/TNFRSF5 protein …. Described as above. This is another data set of the same source.
The target of experiment [4] is T2, Recombinant canine CD40 extracellular domain with human IgG1 Fc domain tag (canine; human, UniProt Q7YRL5 21-194).
T2 construct: extracellular domain; Amine-coupled to a CM5 chip; also called caCD40-Fc; canine CD40-Fc; not shown: human IgG1 Fc domain tag
T2 sequence (looked up): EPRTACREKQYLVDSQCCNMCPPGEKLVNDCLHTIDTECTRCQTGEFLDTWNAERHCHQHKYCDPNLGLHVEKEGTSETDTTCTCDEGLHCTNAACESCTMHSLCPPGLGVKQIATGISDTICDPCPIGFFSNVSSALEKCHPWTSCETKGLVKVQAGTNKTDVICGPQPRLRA
The experiment can be described thus: SPR (Biacore T200), single-cycle kinetics, canine CD40-Fc immobilised, antibody 2-32 nM as analyte, bivalent analyte model, first site, average n=5. As for the experimental part:
(§1) Recombinant canine CD40 extracellular domain with human IgG1 Fc domain tag (canine CD40-Fc) was immobilised to the surface of a Series S Sensor Chip CM5 using an Amine Coupling Kit. The reference surface for analysis was prepared by immobilising human IgG1 isotype control antibody to the Series S Sensor Chip CM5 using the same method.
Kinetics/affinity analysis was carried out using the Biacore method for single-cycle kinetics. Running buffer was HBS-EP+ buffer, pH 7.4. Injection parameters were sample contact time: 180 seconds, dissociation: 600 seconds, flow rate: 30 μl/min. The concentrations of purified anti-dog CD40 antibodies used for kinetics analysis were 2 nM, 4 nM, 8 nM, 16 nM and 32 nM. Regeneration was with 50 mM NaOH for 30 seconds at 30 μl/min. Experimental data was fitted to a bivalent analyte binding model.

Experiment [5] has as its target T2, Recombinant canine CD40 extracellular …. The experiment can be described thus: SPR (Biacore T200), single-cycle kinetics, canine CD40-Fc immobilised, antibody 2-32 nM as analyte, bivalent analyte model, first site, average n=6. How it is done: as §1
(§2) Kinetics/affinity analysis was carried out using the Biacore method for single-cycle kinetics. Running buffer was HBS-EP+ buffer, pH 7.4. Injection parameters were sample contact time: 180 seconds, dissociation: 600 seconds, flow rate: 30 μl/min. The concentrations of chimeric anti-CD40 antibodies used for kinetics analysis were 2 nM, 4 nM, 8 nM, 16 nM and 32 nM. Regeneration was with 50 mM NaOH for 30 seconds at 30 μl/min. Experimental data was fitted to a bivalent analyte binding model.

Experiment [6] has the same target. Briefly: SPR (Biacore T200), single-cycle kinetics, canine CD40-Fc immobilised, antibody 2-32 nM as analyte, bivalent analyte model, first site, average n=5. How it is done:
as §1, §2
The source holds these as a separate data set.

For anti-human CD40 antibody 21.4.1, in experiment [1], the Kd came to 257 nM; the koff (in general, a measure of how fast the partners let go of each other) turned out to be 0.0143 s⁻¹; the kon (as a rule, the second-order rate constant of association) turned out to be 58000 M⁻¹ s⁻¹.

B1: StP1.RE2.D7b.B5 (antibody, V domains shown)
VH: QVQLQQSGPELVKPGASVKISCKASGYSFTSYYIHWVKQSPGQGLEWIGWIFPGSGNTKYNEKFKGKATLTADTSSSTAYMQLSSLTSEDSAVYFCARRGTTRDALDYWGQGTSVTVSS
VL: DILLTQSPAILSVSPGERVSFSCRASQSIGTSIHWFQQRTNGSPRVLIKYASQSISGIPSRFSGSGSGTDFTLSINSVESEDIADYYCQQSYTWPFTFGSGTKLAIKR
For B1, the “positive:negative ratio” value in experiment [2] turned out to be 10.8.

B2: StP1.RD1.G9.H5 (antibody, V domains shown)
VH: QVQLQQSGPELVQPGASVKISCRASGYSFTSYYIHWVKQRPGQGLEWIGWIFPGSGNTKYNEKFRGKATLTADTSSSTAYTQVSSLTSEDSAVYFCARKSPYGNYAMDYWGQGTSVTVSS
VL: DILLTQSPAILSVSPGERVSFSCRASQSIGTSIHWYQQRTNGSPRLLIKSASESISGIPSRFSGSGSGTDFTLSINSVESEDIADYYCQQSNSWPYTFGGGTKLEIKRADAAPTVS
notes: also called purified monoclonal antibody from hybridoma cell-line StP1.RD1.G9.H5
For B2, the “positive:negative ratio” value in experiment [3] came to 12.4. Also, in experiment [4], the Kd worked out at 5.24 nM, the koff was 0.00157 s⁻¹ and the kon was 312000 M⁻¹ s⁻¹. In addition, in experiment [5], the Kd worked out at 2.85 nM, the koff came to 0.00106 s⁻¹ and the kon is 372000 M⁻¹ s⁻¹.

B3: SVX-2001A (antibody)
heavy: QVQLQQSGPELVQPGASVKISCRASGYSFTSYYIHWVKQRPGQGLEWIGWIFPGSGNTKYNEKFRGKATLTADTSSSTAYTQVSSLTSEDSAVYFCARKSPYGNYAMDYWGQGTSVTVSSASTTAPSVFPLAPSCGSTSGSTVALACLVSGYFPEPVTVSWNSGSLTSGVHTFPSVLQSSGLHSLSSMVTVPSSRWPSETFTCNVVHPASNTKVDKPVFNECRCTDTPPCPVPEPLGGPSVLIFPPKPKDILRITRTPEVTCVVLDLGREDPEVQISWFVDGKEVHTAKTQSREQQFNGTYRVVSVLPIEHQDWLTGKEFKCRVNHIDLPSPIERTISKARGRAHKPSVYVLPPSPKELSSSDTVSITCLIKDFYPPDIDVEWQSNGQQEPERKHRMTPPQLDEDGSYFLYSKLSVDKSRWQQGDPFTCAVMHETLQNHYTDLSLSHSPGK
light: DILLTQSPAILSVSPGERVSFSCRASQSIGTSIHWYQQRTNGSPRLLIKSASESISGIPSRFSGSGSGTDFTLSINSVESEDIADYYCQQSNSWPYTFGGGTKLEIKRNDAQPAVYLFQPSPDQLHTGSASVVCLLNSFYPKDINVKWKVDGVIQDTGIQESVTEQDKDSTYSLSSTLTMSSTEYLSHELYSCEITHKSLPSTLIKSFQRSECQRVD
notes: also called chimeric dog IgGA, k antibody derived from StP1.RD1.G9.H5
Take B3: in experiment [6], the Kd amounted to 1.85 nM, the koff was 0.000659 s⁻¹ and the kon came out at 370000 M⁻¹ s⁻¹.

B4: SVX-2001B (antibody)
heavy: QVQLQQSGPELVQPGASVKISCRASGYSFTSYYIHWVKQRPGQGLEWIGWIFPGSGNTKYNEKFRGKATLTADTSSSTAYTQVSSLTSEDSAVYFCARKSPYGNYAMDYWGQGTSVTVSSASTTAPSVFPLAPSCGSTSGSTVALACLVSGYFPEPVTVSWNSGSLTSGVHTFPSVLQSSGLYSLSSMVTVPSSRWPSETFTCNVAHPASKTKVDKPVPKRENGRVPRPPDCPKCPAPEMLGGPSVFIFPPKPKDTLLIARTPEVTCVVVDLDPEDPEVQISWFVDGKQMQTAKTQPREEQFNGTYRVVSVLPIGHQDWLKGKQFTCKVNNKALPSPIERTISKARGQAHQPSVYVLPPSREELSKNTVSLTCLIKDFFPPDIDVEWQSNGQQEPESKYRTTPPQLDEDGSYFLYSKLSVDKSRWQRGDTFICAVMHEALHNHYTQESLSHSPGK
light: DILLTQSPAILSVSPGERVSFSCRASQSIGTSIHWYQQRTNGSPRLLIKSASESISGIPSRFSGSGSGTDFTLSINSVESEDIADYYCQQSNSWPYTFGGGTKLEIKRNDAQPAVYLFQPSPDQLHTGSASVVCLLNSFYPKDINVKWKVDGVIQDTGIQESVTEQDKDSTYSLSSTLTMSSTEYLSHELYSCEITHKSLPSTLIKSFQRSECQRVD
notes: also called chimeric dog IgGB, k antibody derived from StP1.RD1.G9.H5
On to B4, for which, in experiment [6], the Kd was 3.36 nM, the koff is 0.00155 s⁻¹ and the kon stood at 461000 M⁻¹ s⁻¹.

B5: SVX-2001D (antibody)
heavy: QVQLQQSGPELVQPGASVKISCRASGYSFTSYYIHWVKQRPGQGLEWIGWIFPGSGNTKYNEKFRGKATLTADTSSSTAYTQVSSLTSEDSAVYFCARKSPYGNYAMDYWGQGTSVTVSSASTTAPSVFPLAPSCGSTSGSTVALACLVSGYFPEPVTVSWNSGSLTSGVHTFPSVLQSSGLYSLSSTVTVPSSRWPSETFTCNVVHPASNTKVDKPVPKESTCKCISPCPVPESLGGPSVFIFPPKPKDILRITRTPEITCVVLDLGREDPEVQISWFVDGKEVHTAKTQPREQQFNSTYRVVSVLPIEHQDWLTGKEFKCRVNHIGLPSPIERTISKARGQAHQPSVYVLPPSPKELSSSDTVTLTCLIKDFFPPEIDVEWQSNGQPEPESKYHTTAPQLDEDGSYFLYSKLSVDKSRWQQGDTFTCAVMHEALQNHYTDLSLSHSPGK
light: DILLTQSPAILSVSPGERVSFSCRASQSIGTSIHWYQQRTNGSPRLLIKSASESISGIPSRFSGSGSGTDFTLSINSVESEDIADYYCQQSNSWPYTFGGGTKLEIKRNDAQPAVYLFQPSPDQLHTGSASVVCLLNSFYPKDINVKWKVDGVIQDTGIQESVTEQDKDSTYSLSSTLTMSSTEYLSHELYSCEITHKSLPSTLIKSFQRSECQRVD
notes: also called chimeric dog IgGD, k antibody derived from StP1.RD1.G9.H5
Regarding B5, in experiment [6], the Kd stood at 2.6 nM, the koff worked out at 0.000932 s⁻¹ and the kon worked out at 359000 M⁻¹ s⁻¹.

B6: SVX-2001C (antibody)
heavy: QVQLQQSGPELVQPGASVKISCRASGYSFTSYYIHWVKQRPGQGLEWIGWIFPGSGNTKYNEKFRGKATLTADTSSSTAYTQVSSLTSEDSAVYFCARKSPYGNYAMDYWGQGTSVTVSSASTTAPSVFPLAPSCGSQSGSTVALACLVSGYIPEPVTVSWNSVSLTSGVHTFPSVLQSSGLYSLSSMVTVPSSRWPSETFTCNVAHPATNTKVDKPVAKECECKCNCNNCPCPGCGLLGGPSVFIFPPKPKDILVTARTPTVTCVVVDLDPENPEVQISWFVDSKQVQTANTQPREEQSNGTYRVVSVLPIGHQDWLSGKQFKCKVNNKALPSPIEEIISKTPGQAHQPNVYVLPPSRDEMSKNTVTLTCLVKDFFPPEIDVEWQSNGQQEPESKYRMTPPQLDEDGSYFLYSKLSVDKSRWQRGDTFICAVMHEALHNHYTQISLSHSPGK
light: DILLTQSPAILSVSPGERVSFSCRASQSIGTSIHWYQQRTNGSPRLLIKSASESISGIPSRFSGSGSGTDFTLSINSVESEDIADYYCQQSNSWPYTFGGGTKLEIKRNDAQPAVYLFQPSPDQLHTGSASVVCLLNSFYPKDINVKWKVDGVIQDTGIQESVTEQDKDSTYSLSSTLTMSSTEYLSHELYSCEITHKSLPSTLIKSFQRSECQRVD
notes: also called chimeric dog IgGC, k antibody derived from StP1.RD1.G9.H5
Consider B6, for which, in experiment [6], the Kd turned out to be 3.36 nM, the koff came out at 0.00172 s⁻¹ and the kon stood at 519000 M⁻¹ s⁻¹.
